T1: Ep-CAM (UniProt P16422 24-265, limits assumed)
T1 construct: Antigen of the Biacore analysis of ING-1 variants
T1 sequence (looked up): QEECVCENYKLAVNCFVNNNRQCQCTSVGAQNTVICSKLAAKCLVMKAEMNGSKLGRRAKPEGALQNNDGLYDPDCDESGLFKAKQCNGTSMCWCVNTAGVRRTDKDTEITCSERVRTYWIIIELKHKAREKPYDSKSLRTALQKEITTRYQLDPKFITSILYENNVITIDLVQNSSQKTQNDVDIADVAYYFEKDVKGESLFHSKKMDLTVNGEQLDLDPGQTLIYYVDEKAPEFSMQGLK


Target: T1, Ep-CAM
Assay: Biacore, Fab periplasmic extract

| binding result | fold difference in affinity vs original | Binder |
| --- | --- | --- |
| no binding | – | ING-1 heavy chain G100Q (Fab, V domains shown) VH: QIQLVQSGPELKKPGETVKISCKASGYTFTKYGMNWVKQAPGKGLKWMGWINTYTEEPTYGDDFKGRFAFSLETSASTANLQINNLKSEDTATYFCARFQSAVDYWGQGTSVTVSS VL: DIVMTQAAFSNPVTLGTSGSISCRSSKSLLHSNGITYLYWYLQKPGQSPQLLIYQMSNLASGVPDRFSSSGSGTDFTLRISRVEAEDVGVYYCAQNLELPRTFGGGTKLEMKR |
| no binding | – | ING-1 heavy chain G100Y (Fab, V domains shown) VH: QIQLVQSGPELKKPGETVKISCKASGYTFTKYGMNWVKQAPGKGLKWMGWINTYTEEPTYGDDFKGRFAFSLETSASTANLQINNLKSEDTATYFCARFYSAVDYWGQGTSVTVSS VL: DIVMTQAAFSNPVTLGTSGSISCRSSKSLLHSNGITYLYWYLQKPGQSPQLLIYQMSNLASGVPDRFSSSGSGTDFTLRISRVEAEDVGVYYCAQNLELPRTFGGGTKLEMKR |
| no binding | – | ING-1 heavy chain T30G (Fab, V domains shown) VH: QIQLVQSGPELKKPGETVKISCKASGYTFGKYGMNWVKQAPGKGLKWMGWINTYTEEPTYGDDFKGRFAFSLETSASTANLQINNLKSEDTATYFCARFGSAVDYWGQGTSVTVSS VL: DIVMTQAAFSNPVTLGTSGSISCRSSKSLLHSNGITYLYWYLQKPGQSPQLLIYQMSNLASGVPDRFSSSGSGTDFTLRISRVEAEDVGVYYCAQNLELPRTFGGGTKLEMKR |
| no binding | – | ING-1 heavy chain N52R (Fab, V domains shown) VH: QIQLVQSGPELKKPGETVKISCKASGYTFTKYGMNWVKQAPGKGLKWMGWIRTYTEEPTYGDDFKGRFAFSLETSASTANLQINNLKSEDTATYFCARFGSAVDYWGQGTSVTVSS VL: DIVMTQAAFSNPVTLGTSGSISCRSSKSLLHSNGITYLYWYLQKPGQSPQLLIYQMSNLASGVPDRFSSSGSGTDFTLRISRVEAEDVGVYYCAQNLELPRTFGGGTKLEMKR |
| no binding | – | ING-1 heavy chain T53D (Fab, V domains shown) VH: QIQLVQSGPELKKPGETVKISCKASGYTFTKYGMNWVKQAPGKGLKWMGWINDYTEEPTYGDDFKGRFAFSLETSASTANLQINNLKSEDTATYFCARFGSAVDYWGQGTSVTVSS VL: DIVMTQAAFSNPVTLGTSGSISCRSSKSLLHSNGITYLYWYLQKPGQSPQLLIYQMSNLASGVPDRFSSSGSGTDFTLRISRVEAEDVGVYYCAQNLELPRTFGGGTKLEMKR |
| no binding | – | ING-1 heavy chain N52F (Fab, V domains shown) VH: QIQLVQSGPELKKPGETVKISCKASGYTFTKYGMNWVKQAPGKGLKWMGWIFTYTEEPTYGDDFKGRFAFSLETSASTANLQINNLKSEDTATYFCARFGSAVDYWGQGTSVTVSS VL: DIVMTQAAFSNPVTLGTSGSISCRSSKSLLHSNGITYLYWYLQKPGQSPQLLIYQMSNLASGVPDRFSSSGSGTDFTLRISRVEAEDVGVYYCAQNLELPRTFGGGTKLEMKR |
| no binding | – | ING-1 heavy chain K31N (Fab, V domains shown) VH: QIQLVQSGPELKKPGETVKISCKASGYTFTNYGMNWVKQAPGKGLKWMGWINTYTEEPTYGDDFKGRFAFSLETSASTANLQINNLKSEDTATYFCARFGSAVDYWGQGTSVTVSS VL: DIVMTQAAFSNPVTLGTSGSISCRSSKSLLHSNGITYLYWYLQKPGQSPQLLIYQMSNLASGVPDRFSSSGSGTDFTLRISRVEAEDVGVYYCAQNLELPRTFGGGTKLEMKR |
| – | 0.9 fold | ING-1 heavy chain P58N (Fab, V domains shown) VH: QIQLVQSGPELKKPGETVKISCKASGYTFTKYGMNWVKQAPGKGLKWMGWINTYTEENTYGDDFKGRFAFSLETSASTANLQINNLKSEDTATYFCARFGSAVDYWGQGTSVTVSS VL: DIVMTQAAFSNPVTLGTSGSISCRSSKSLLHSNGITYLYWYLQKPGQSPQLLIYQMSNLASGVPDRFSSSGSGTDFTLRISRVEAEDVGVYYCAQNLELPRTFGGGTKLEMKR |
| no binding | – | ING-1 heavy chain T53E (Fab, V domains shown) VH: QIQLVQSGPELKKPGETVKISCKASGYTFTKYGMNWVKQAPGKGLKWMGWINEYTEEPTYGDDFKGRFAFSLETSASTANLQINNLKSEDTATYFCARFGSAVDYWGQGTSVTVSS VL: DIVMTQAAFSNPVTLGTSGSISCRSSKSLLHSNGITYLYWYLQKPGQSPQLLIYQMSNLASGVPDRFSSSGSGTDFTLRISRVEAEDVGVYYCAQNLELPRTFGGGTKLEMKR |
| – | 0.02 fold | ING-1 heavy chain N52H (Fab, V domains shown) VH: QIQLVQSGPELKKPGETVKISCKASGYTFTKYGMNWVKQAPGKGLKWMGWIHTYTEEPTYGDDFKGRFAFSLETSASTANLQINNLKSEDTATYFCARFGSAVDYWGQGTSVTVSS VL: DIVMTQAAFSNPVTLGTSGSISCRSSKSLLHSNGITYLYWYLQKPGQSPQLLIYQMSNLASGVPDRFSSSGSGTDFTLRISRVEAEDVGVYYCAQNLELPRTFGGGTKLEMKR |
| no binding | – | ING-1 heavy chain N52E (Fab, V domains shown) VH: QIQLVQSGPELKKPGETVKISCKASGYTFTKYGMNWVKQAPGKGLKWMGWIETYTEEPTYGDDFKGRFAFSLETSASTANLQINNLKSEDTATYFCARFGSAVDYWGQGTSVTVSS VL: DIVMTQAAFSNPVTLGTSGSISCRSSKSLLHSNGITYLYWYLQKPGQSPQLLIYQMSNLASGVPDRFSSSGSGTDFTLRISRVEAEDVGVYYCAQNLELPRTFGGGTKLEMKR |
| no binding | – | ING-1 heavy chain N52Q (Fab, V domains shown) VH: QIQLVQSGPELKKPGETVKISCKASGYTFTKYGMNWVKQAPGKGLKWMGWIQTYTEEPTYGDDFKGRFAFSLETSASTANLQINNLKSEDTATYFCARFGSAVDYWGQGTSVTVSS VL: DIVMTQAAFSNPVTLGTSGSISCRSSKSLLHSNGITYLYWYLQKPGQSPQLLIYQMSNLASGVPDRFSSSGSGTDFTLRISRVEAEDVGVYYCAQNLELPRTFGGGTKLEMKR |
| – | 2 fold | ING-1 heavy chain T30Y (Fab, V domains shown) VH: QIQLVQSGPELKKPGETVKISCKASGYTFYKYGMNWVKQAPGKGLKWMGWINTYTEEPTYGDDFKGRFAFSLETSASTANLQINNLKSEDTATYFCARFGSAVDYWGQGTSVTVSS VL: DIVMTQAAFSNPVTLGTSGSISCRSSKSLLHSNGITYLYWYLQKPGQSPQLLIYQMSNLASGVPDRFSSSGSGTDFTLRISRVEAEDVGVYYCAQNLELPRTFGGGTKLEMKR |
| no binding | – | ING-1 heavy chain N52S (Fab, V domains shown) VH: QIQLVQSGPELKKPGETVKISCKASGYTFTKYGMNWVKQAPGKGLKWMGWISTYTEEPTYGDDFKGRFAFSLETSASTANLQINNLKSEDTATYFCARFGSAVDYWGQGTSVTVSS VL: DIVMTQAAFSNPVTLGTSGSISCRSSKSLLHSNGITYLYWYLQKPGQSPQLLIYQMSNLASGVPDRFSSSGSGTDFTLRISRVEAEDVGVYYCAQNLELPRTFGGGTKLEMKR |
| – | 0.02 fold | ING-1 heavy chain N52D (Fab, V domains shown) VH: QIQLVQSGPELKKPGETVKISCKASGYTFTKYGMNWVKQAPGKGLKWMGWIDTYTEEPTYGDDFKGRFAFSLETSASTANLQINNLKSEDTATYFCARFGSAVDYWGQGTSVTVSS VL: DIVMTQAAFSNPVTLGTSGSISCRSSKSLLHSNGITYLYWYLQKPGQSPQLLIYQMSNLASGVPDRFSSSGSGTDFTLRISRVEAEDVGVYYCAQNLELPRTFGGGTKLEMKR |
| no binding | – | ING-1 heavy chain N52Y (Fab, V domains shown) VH: QIQLVQSGPELKKPGETVKISCKASGYTFTKYGMNWVKQAPGKGLKWMGWIYTYTEEPTYGDDFKGRFAFSLETSASTANLQINNLKSEDTATYFCARFGSAVDYWGQGTSVTVSS VL: DIVMTQAAFSNPVTLGTSGSISCRSSKSLLHSNGITYLYWYLQKPGQSPQLLIYQMSNLASGVPDRFSSSGSGTDFTLRISRVEAEDVGVYYCAQNLELPRTFGGGTKLEMKR |
| no binding | – | ING-1 heavy chain G100W (Fab, V domains shown) VH: QIQLVQSGPELKKPGETVKISCKASGYTFTKYGMNWVKQAPGKGLKWMGWINTYTEEPTYGDDFKGRFAFSLETSASTANLQINNLKSEDTATYFCARFWSAVDYWGQGTSVTVSS VL: DIVMTQAAFSNPVTLGTSGSISCRSSKSLLHSNGITYLYWYLQKPGQSPQLLIYQMSNLASGVPDRFSSSGSGTDFTLRISRVEAEDVGVYYCAQNLELPRTFGGGTKLEMKR |
| no binding | – | ING-1 heavy chain N52W (Fab, V domains shown) VH: QIQLVQSGPELKKPGETVKISCKASGYTFTKYGMNWVKQAPGKGLKWMGWIWTYTEEPTYGDDFKGRFAFSLETSASTANLQINNLKSEDTATYFCARFGSAVDYWGQGTSVTVSS VL: DIVMTQAAFSNPVTLGTSGSISCRSSKSLLHSNGITYLYWYLQKPGQSPQLLIYQMSNLASGVPDRFSSSGSGTDFTLRISRVEAEDVGVYYCAQNLELPRTFGGGTKLEMKR |
| no binding | – | ING-1 heavy chain T28Q (Fab, V domains shown) VH: QIQLVQSGPELKKPGETVKISCKASGYQFTKYGMNWVKQAPGKGLKWMGWINTYTEEPTYGDDFKGRFAFSLETSASTANLQINNLKSEDTATYFCARFGSAVDYWGQGTSVTVSS VL: DIVMTQAAFSNPVTLGTSGSISCRSSKSLLHSNGITYLYWYLQKPGQSPQLLIYQMSNLASGVPDRFSSSGSGTDFTLRISRVEAEDVGVYYCAQNLELPRTFGGGTKLEMKR |
| no binding | – | ING-1 heavy chain N52K (Fab, V domains shown) VH: QIQLVQSGPELKKPGETVKISCKASGYTFTKYGMNWVKQAPGKGLKWMGWIKTYTEEPTYGDDFKGRFAFSLETSASTANLQINNLKSEDTATYFCARFGSAVDYWGQGTSVTVSS VL: DIVMTQAAFSNPVTLGTSGSISCRSSKSLLHSNGITYLYWYLQKPGQSPQLLIYQMSNLASGVPDRFSSSGSGTDFTLRISRVEAEDVGVYYCAQNLELPRTFGGGTKLEMKR |
| – | 1 fold | ING-1 heavy chain K31Y (Fab, V domains shown) VH: QIQLVQSGPELKKPGETVKISCKASGYTFTYYGMNWVKQAPGKGLKWMGWINTYTEEPTYGDDFKGRFAFSLETSASTANLQINNLKSEDTATYFCARFGSAVDYWGQGTSVTVSS VL: DIVMTQAAFSNPVTLGTSGSISCRSSKSLLHSNGITYLYWYLQKPGQSPQLLIYQMSNLASGVPDRFSSSGSGTDFTLRISRVEAEDVGVYYCAQNLELPRTFGGGTKLEMKR |
